Tested on: Escherichia coli TOP10
Assay: shrunken log2 fold change of peptide-encoding DNA abundance (4.5 h post-induction vs induction); higher = less antimicrobial activity (less host growth inhibition)
Conditions: time post-induction: 4.5 h; library: site-saturation at positions 5, 18, 19, 20
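Further: peptides expressed intracellularly from a pBAD plasmid library in pooled LB shake-flask culture, induced with 0.3% L-arabinose, DNA abundance read by NGS, three biological replicates, DESeq2 with apeglm shrinkage.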

Sequence | shrunken log2 fold change
RRIRDRPPRLPRPRPRPCCVPRP | -0.158
RRIRDRPPRLPRPRPRPCCWPRP | 0.582
RRIRDRPPRLPRPRPRPCGMPRP | 0.0207
RRIRDRPPRLPRPRPRPCHTPRP | -0.234
RRIRDRPPRLPRPRPRPCIPPRP | -0.123
RRIRDRPPRLPRPRPRPCLNPRP | 0.0235
RRIRDRPPRLPRPRPRPCPKPRP | -0.048
RRIRDRPPRLPRPRPRPCPPPRP | -0.249
RRIRDRPPRLPRPRPRPCRMPRP | 0.0112
RRIRDRPPRLPRPRPRPCRVPRP | 0.0479
RRIRDRPPRLPRPRPRPCSLPRP | -0.0409
RRIRDRPPRLPRPRPRPCSRPRP | 0.0202
RRIRDRPPRLPRPRPRPCSSPRP | 0.187
RRIRDRPPRLPRPRPRPCTLPRP | -0.302
RRIRDRPPRLPRPRPRPCVCPRP | -0.0348
RRIRDRPPRLPRPRPRPCVDPRP | 0.0635
RRIRDRPPRLPRPRPRPCVLPRP | 0.0171
RRIRDRPPRLPRPRPRPCWMPRP | -0.0868
RRIRDRPPRLPRPRPRPDAVPRP | 0.585
RRIRDRPPRLPRPRPRPDAYPRP | 0.0301
RRIRDRPPRLPRPRPRPDCFPRP | 1.04
RRIRDRPPRLPRPRPRPDDKPRP | 0.0802
RRIRDRPPRLPRPRPRPDEAPRP | 0.12
RRIRDRPPRLPRPRPRPDENPRP | 0.511
RRIRDRPPRLPRPRPRPDEQPRP | 0.0528

Sequence | shrunken log2 fold change
RRIRDRPPRLPRPRPRPDIFPRP | 0.171
RRIRDRPPRLPRPRPRPDMFPRP | 0.0667
RRIRDRPPRLPRPRPRPDMSPRP | -0.0165
RRIRDRPPRLPRPRPRPDQDPRP | 0.399
RRIRDRPPRLPRPRPRPDSSPRP | 0.109
RRIRDRPPRLPRPRPRPDTLPRP | 0.125
RRIRDRPPRLPRPRPRPDTNPRP | -0.0518
RRIRDRPPRLPRPRPRPDVDPRP | 0.0482
RRIRDRPPRLPRPRPRPDWCPRP | 0.163
RRIRDRPPRLPRPRPRPDWFPRP | -0.0209
RRIRDRPPRLPRPRPRPDWWPRP | 0.0503
RRIRDRPPRLPRPRPRPEAQPRP | 1.66
RRIRDRPPRLPRPRPRPEAYPRP | -0.0102
RRIRDRPPRLPRPRPRPECEPRP | 1.53
RRIRDRPPRLPRPRPRPECGPRP | 1.71
RRIRDRPPRLPRPRPRPEDVPRP | -0.0018
RRIRDRPPRLPRPRPRPEEIPRP | -0.0062
RRIRDRPPRLPRPRPRPEFIPRP | 0.163
RRIRDRPPRLPRPRPRPEGHPRP | -0.0429
RRIRDRPPRLPRPRPRPEISPRP | 0.134
RRIRDRPPRLPRPRPRPELPPRP | 0.302
RRIRDRPPRLPRPRPRPELQPRP | 0.072
RRIRDRPPRLPRPRPRPEMAPRP | 0.0683
RRIRDRPPRLPRPRPRPERFPRP | 0.361
RRIRDRPPRLPRPRPRPERMPRP | 0.216

Sequence | shrunken log2 fold change
RRIRDRPPRLPRPRPRPETNPRP | 0.443
RRIRDRPPRLPRPRPRPETPPRP | 0.904
RRIRDRPPRLPRPRPRPEWWPRP | -0.00197
RRIRDRPPRLPRPRPRPFACPRP | 0.107
RRIRDRPPRLPRPRPRPFAIPRP | -0.0496
RRIRDRPPRLPRPRPRPFALPRP | 0.206
RRIRDRPPRLPRPRPRPFAMPRP | -0.188
RRIRDRPPRLPRPRPRPFANPRP | -0.177
RRIRDRPPRLPRPRPRPFERPRP | -0.0141
RRIRDRPPRLPRPRPRPFFDPRP | 0.266
RRIRDRPPRLPRPRPRPFFHPRP | 0.119
RRIRDRPPRLPRPRPRPFFIPRP | -0.191
RRIRDRPPRLPRPRPRPFFVPRP | 0.0823
RRIRDRPPRLPRPRPRPFHFPRP | -0.208
RRIRDRPPRLPRPRPRPFHSPRP | -0.13
RRIRDRPPRLPRPRPRPFICPRP | -0.0606
RRIRDRPPRLPRPRPRPFMSPRP | -0.0203
RRIRDRPPRLPRPRPRPFNIPRP | 0.0125
RRIRDRPPRLPRPRPRPFPMPRP | -0.0572
RRIRDRPPRLPRPRPRPFPNPRP | -0.503
RRIRDRPPRLPRPRPRPFPPPRP | -0.113
RRIRDRPPRLPRPRPRPFQGPRP | -0.181
RRIRDRPPRLPRPRPRPFQQPRP | -0.0599
RRIRDRPPRLPRPRPRPFRGPRP | 0.0499
RRIRDRPPRLPRPRPRPFSMPRP | -0.506

Sequence | shrunken log2 fold change
RRIRDRPPRLPRPRPRPFVAPRP | 0.0541
RRIRDRPPRLPRPRPRPFWDPRP | 0.148
RRIRDRPPRLPRPRPRPFWSPRP | 0.000201
RRIRDRPPRLPRPRPRPFYIPRP | -0.796
RRIRDRPPRLPRPRPRPFYNPRP | -0.732
RRIRDRPPRLPRPRPRPGASPRP | 1.08
RRIRDRPPRLPRPRPRPGCHPRP | 0.15
RRIRDRPPRLPRPRPRPGDPPRP | 0.293
RRIRDRPPRLPRPRPRPGDQPRP | 0.282
RRIRDRPPRLPRPRPRPGEAPRP | 1.1
RRIRDRPPRLPRPRPRPGETPRP | 0.0408
RRIRDRPPRLPRPRPRPGFCPRP | 0.567
RRIRDRPPRLPRPRPRPGHAPRP | 0.648
RRIRDRPPRLPRPRPRPGHVPRP | -0.0651
RRIRDRPPRLPRPRPRPGIHPRP | -0.89
RRIRDRPPRLPRPRPRPGIPPRP | 0.016
RRIRDRPPRLPRPRPRPGKDPRP | -0.0503
RRIRDRPPRLPRPRPRPGKTPRP | -0.00088
RRIRDRPPRLPRPRPRPGLCPRP | 0.224
RRIRDRPPRLPRPRPRPGNYPRP | -0.0159
RRIRDRPPRLPRPRPRPGRWPRP | 0.797
RRIRDRPPRLPRPRPRPGRYPRP | -0.134
RRIRDRPPRLPRPRPRPGSHPRP | 0.235
RRIRDRPPRLPRPRPRPGTFPRP | 0.00435
RRIRDRPPRLPRPRPRPGTHPRP | 0.129

Sequence | shrunken log2 fold change
RRIRDRPPRLPRPRPRPGVYPRP | 0.0379
RRIRDRPPRLPRPRPRPGWCPRP | 0.201
RRIRDRPPRLPRPRPRPGWFPRP | 0.297
RRIRDRPPRLPRPRPRPGWLPRP | 0.127
RRIRDRPPRLPRPRPRPHAGPRP | 0.0575
RRIRDRPPRLPRPRPRPHCCPRP | -0.00968
RRIRDRPPRLPRPRPRPHCIPRP | -0.00742
RRIRDRPPRLPRPRPRPHDKPRP | 0.0278
RRIRDRPPRLPRPRPRPHDMPRP | -0.0819
RRIRDRPPRLPRPRPRPHEKPRP | -0.0396
RRIRDRPPRLPRPRPRPHETPRP | -0.0736
RRIRDRPPRLPRPRPRPHFKPRP | -0.148
RRIRDRPPRLPRPRPRPHGAPRP | 0.211
RRIRDRPPRLPRPRPRPHHPPRP | -0.408
RRIRDRPPRLPRPRPRPHISPRP | -0.0535
RRIRDRPPRLPRPRPRPHKYPRP | -0.116
RRIRDRPPRLPRPRPRPHLMPRP | -0.283
RRIRDRPPRLPRPRPRPHPIPRP | -0.152
RRIRDRPPRLPRPRPRPHRCPRP | -0.00141
RRIRDRPPRLPRPRPRPHRFPRP | 0.0062
RRIRDRPPRLPRPRPRPHRKPRP | 0.00895
RRIRDRPPRLPRPRPRPHTIPRP | -0.351
RRIRDRPPRLPRPRPRPHTNPRP | -0.367
RRIRDRPPRLPRPRPRPHWRPRP | 0.0876
RRIRDRPPRLPRPRPRPHYGPRP | -0.192

Sequence | shrunken log2 fold change
RRIRDRPPRLPRPRPRPHYLPRP | -0.159
RRIRDRPPRLPRPRPRPHYMPRP | -0.231
RRIRDRPPRLPRPRPRPIAEPRP | 0.195
RRIRDRPPRLPRPRPRPIATPRP | -0.0393
RRIRDRPPRLPRPRPRPICGPRP | 0.0876
RRIRDRPPRLPRPRPRPICKPRP | 0.00282
RRIRDRPPRLPRPRPRPICNPRP | 0.324
RRIRDRPPRLPRPRPRPICWPRP | 0.318
RRIRDRPPRLPRPRPRPICYPRP | 0.204
RRIRDRPPRLPRPRPRPIDQPRP | -0.0222
RRIRDRPPRLPRPRPRPIEKPRP | -0.0135
RRIRDRPPRLPRPRPRPIFRPRP | -0.202
RRIRDRPPRLPRPRPRPIIFPRP | -0.00292
RRIRDRPPRLPRPRPRPIILPRP | 0.0057
RRIRDRPPRLPRPRPRPIIPPRP | -0.644
RRIRDRPPRLPRPRPRPIIYPRP | -0.313
RRIRDRPPRLPRPRPRPILEPRP | -0.0842
RRIRDRPPRLPRPRPRPILGPRP | -0.0116
RRIRDRPPRLPRPRPRPILTPRP | -0.0144
RRIRDRPPRLPRPRPRPIMKPRP | -0.195
RRIRDRPPRLPRPRPRPIMMPRP | -0.232
RRIRDRPPRLPRPRPRPINDPRP | 0.0753
RRIRDRPPRLPRPRPRPINPPRP | -0.277
RRIRDRPPRLPRPRPRPINRPRP | -0.104
RRIRDRPPRLPRPRPRPIPCPRP | -0.0802
